B1: hOAT (humanized IgG One Anti-Tissue Factor antibody) (antibody, V domains shown)
VH: QIQLVQSGGEVKKPGASVRVSCKASGYSFTDYNVYWVRQSPGKGLEWIGYIDPYNGITIYDQNLKGKATLTVDKSTSTAYMELSSLRSEDTAVYFCARDVTTALDFWGQGTTVTVSS
VL: DIQMTQSPASLSASVGDRVTITCLASQTIDTWLAWYLQKPGKSPQLLIYAATNLADGVPSRFSGSGSGTDFSFTISSLQPEDFATYYCQQVYSSPFTFGQGTKLEIK
B2: hFAT (humanized IgG Four Anti-Tissue Factor antibody) (antibody, V domains shown)
VH: B1 VH
VL: B1 VL
B3: chimeric anti-tissue factor antibody cH36 (antibody, human IgG4, V domains shown)
VH: EIQLQQSGPELVKPGASVQVSCKTSGYSFTDYNVYWVRQSHGKSLEWIGYIDPYNGITIYDQNFKGKATLTVDKSSTTAFMHLNSLTSDDSAVYFCARDVTTALDFWGQGTTLTVSS
VL: DIQMTQSPASQSASLGESVTITCLASQTIDTWLAWYQQKPGKSPQLLIYAATNLADGVPSRFSGSGSGTKFSFKISSLQAEDFVNYYCQQVYSSPFTFGAGTKLELK

These binders were tested against T1, lipidated recombinant human tissue factor (e.g., Innovin) (human, UniProt P13726 33-295, limits assumed) (assay: cell-based or functional assay).
With B1 the “PT Time (in seconds) at 12.9 nM anti-TF antibody” value was 18.9 s, the “PT Time (in seconds) at 25.8 nM anti-TF antibody” value was 33.7 s and the “PT Time (in seconds) at 51.6 nM anti-TF antibody” value was 82.1 s. B2 was tested, and the “PT Time (in seconds) at 12.9 nM anti-TF antibody” value was 20.5 s, the “PT Time (in seconds) at 25.8 nM anti-TF antibody” value was 41.7 s and the “PT Time (in seconds) at 51.6 nM anti-TF antibody” value was 94.8 s. B3 was tested, and the “PT Time (in seconds) at 12.9 nM anti-TF antibody” value was 19.8 s, the “PT Time (in seconds) at 25.8 nM anti-TF antibody” value was 40 s and the “PT Time (in seconds) at 51.6 nM anti-TF antibody” value was 101 s.

Biological target: T1, lipidated recombinant human tissue …
Assay: cell-based or functional assay
Remark: another data set of the same source
In the case of B1, the “inhibition of TF function (PT assay)” value is reported as ~95%. In the case of B2, the “inhibition of TF function (PT assay)” value is reported as ~95%. For B3, the “inhibition of TF function (PT assay)” value was ~95%.

Source: patent US20030190705A1 (SUNOL MOLECULAR, published 2003)
